± gives the uncertainty stated by the source.
Experiment: amyloid nucleation score (Sup35N fusion, yeast selection) (log enrichment); library NNK3; higher = more nucleation; inactive = no reads after selection
Method in brief: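 On medium lacking adenine and uracil, psi-negative yeast expressing peptides of 20 random codons fused to Sup35N were grown 7 days at 30°C after a 24-hour induction with 100 μM copper sulfate. Illumina sequencing of input and output plasmid inserts gave the reads, and sequences under 100 input reads were excluded. The nucleation score is the DiMSum log enrichment of output over input reads, centred on the mode score of non-aggregating sequences.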

Substance	amyloid nucleation score
SRYIRGTLCRAVSVNRPHVH	inactive
SSAELV	inactive
SSAYHSHDSSRTKRNRSGRM	inactive
SSCKWLFTSSHPSHPEAS	inactive
SSCMAFIMGWKYITMD	inactive
SSDCMDDRCCDNCDSSRLLW	inactive
SSFGFKAK	inactive
SSFLWTVWGFSNNPCCSSVA	2.46 ± 0.051
SSFTKLPFL	inactive
SSGHMICIYYQLVHIIVRLC	inactive
SSGLICF	inactive
SSGNFA	inactive
SSGPLALVL	inactive
SSGSPFNCWHSLHCSSRPFK	inactive
SSHIRWHGN	inactive
SSKMLTLMWMVGPPLSTDGS	inactive
SSLAGMQEDC	inactive
SSLIFLFDGKHRVLIYNLSN	0.482 ± 0.47
SSLIWNLSCELLTWLHVRRW	-1.3 ± 2.5
SSLMRIHLPLVYQ	inactive
SSLPRPLVFRSLFVWREYIQ	-0.06 ± 0.77
SSLQHSAW	inactive
SSNNQMWTELITYCLRCAWV	inactive
SSNTTMRINSVRH	inactive

Substance	amyloid nucleation score
SSPRSMASYQRSKIRWVSEF	inactive
SSSLCASWHPYLKWKSYRMF	inactive
SSSLVRCHG	inactive
SSSRCITLLVSIMVPISATC	inactive
SSTHIWGVQALGS	inactive
SSVENFLNVCNHLDES	0.389 ± 0.25
SSWLLLAGKIW	inactive
SSWSSRATLMLSSEVKSDMV	inactive
SSYLLRLLIFTSSIRRMFGS	inactive
SSYLMFDMLMRYYLNYFMCR	inactive
SSYLNYIFSMTLECIYGC	-0.272 ± 0.47
STASILFIGVKYVM	0.889 ± 0.32
STETYWYSHLIINLVGSWF	inactive
STIISWWSTVIYFKLI	inactive
STIQSHCYKVVGV	inactive
STLGRKVRFTVVLITIGVLT	inactive
STLRSLCRPSGFGVAI	inactive
STLRWLR	inactive
STNMFVCDGRTPTNYWLGIR	1.42 ± 0.14
STPHAHIRSLFMSGYGILTN	inactive
STSICIGLLYAFVFEARVLC	inactive
STVCWHMQRVASTVAL	inactive
STVFDFSTLNFFCKSCSIFW	2.22 ± 0.087
STVVNSYMNFCACKGSNMAC	2.7 ± 0.068

Substance	amyloid nucleation score
STWDLNMCLFRYMFKI	inactive
STWMNTDYGDTTV	-0.277 ± 0.96
SVCMVFYPVEREKEDQKSVE	inactive
SVERILLYGRCCFVRRA	0.403 ± 0.2
SVFCMLYLFWLSFLIVLLLM	1.59 ± 0.13
SVFDMDSMGTS	inactive
SVFQWHPFIESKGNLLSTVK	inactive
SVGCPVVRTQFILSPGQTSN	inactive
SVIIRRGTSQPNRVSWNKVK	inactive
SVIVTYVWVTAVVQGEYSTK	-0.095 ± 0.55
SVIYIWDG	0.425 ± 0.43
SVKKESCCD	inactive
SVKRDFFSLFRFVSNAVSED	inactive
SVKTGYVDRPNLRTTFYGCL	inactive
SVLWLN	inactive
SVNKAWHSRLIVVLYNRLTG	0.082 ± 0.18
SVRHSWTMSVFFSDRNALAN	inactive
SVRRLGGLLLYCNHFMFD	inactive
SVRVSIFRGLVRNRWKFDGF	0.666 ± 0.16
SVSADGGFCIHGQTRPMAGL	1.21 ± 0.095
SVSVLV	inactive
SVTFANTSRHYPLADLSTPT	0.162 ± 0.27
SVVDRGASRFKRTVNVSNKA	inactive
SVVRVCSSCIVDYRMCESK	0.927 ± 0.14

Substance	amyloid nucleation score
SVYECNLIRDFIDRQGPNLA	2.25 ± 0.058
SWCCR	1.4 ± 0.1
SWFWVHHEFVFKALGTLIRT	inactive
SWGAWIGLWFRTGVLLDESA	inactive
SWGIEDSVSYEMETDVVSNW	inactive
SWISR	inactive
SWMYEFGSGTVKGGGKSELD	inactive
SWPVCWDHIWQSWGLTTSAV	inactive
SWRAVRRALLGRCNGSRVLV	inactive
SWTCRFCHMSFIGML	0.251 ± 0.43
SYDNWWCVILMRNQGRCAWG	inactive
SYFVWVNV	inactive
SYGKTFAMSYVW	inactive
SYINHTIPRVLWAITLRYLI	inactive
SYMACYFSIAYEYFNSTFDK	inactive
SYMLTFK	inactive
SYPERMLWSSVMADFKMRRP	inactive
SYQVCSKQTPHFSLSFIMFV	-0.488 ± 0.96
SYRASSGCHWREPHGLSDVR	0.897 ± 0.21
SYRGSRRRSFTSYLCEFEGM	inactive
SYSGIYILSSFAATSSFILS	0.46 ± 0.2
SYSQKKRHVSKSTGSRAWQA	inactive
SYSRLWTQMNCTKVVNSYC	inactive
SYSWYFYSAGTSWI	inactive

Substance	amyloid nucleation score
SYTPHY	inactive
SYVAVPR	inactive
SYVVSQPFSHRYWESLTMAL	inactive
SYYAHL	inactive
SYYMTKLVFLCPLW	inactive
SYYTYVFTIVTPRKTNLWSG	0.64 ± 0.28
TAAYSLFIEVSCSQSTN	inactive
TADRQGYSFEC	inactive
TAEKSGVGLFGGTSVFLFES	inactive
TAFTYYASVSFVSRL	1.38 ± 0.093
TAKTRC	-0.272 ± 0.96
TARYMLSKYVTLCNDVSI	0.984 ± 0.12
TASWVLFVAVVCICLTLFSY	0.85 ± 0.3
TAWGMLGGPE	inactive
TAYFFSVARVMVDLTTALLA	0.161 ± 0.33
TCECDGFLFFRRCFNWG	inactive
TCEWQRTCNPVGMSYKWSRG	inactive
TCGINYRGYEDPRPCRGTEI	inactive
TCGVVSPRGMSNMLCLGGWS	inactive
TCHLSKHEISYQLGDTNGHC	-0.516 ± 0.9
TCIGPGRFFFMMFYV	inactive
TCLLRQCWNNVMS	inactive
TCLWFLFIKRSSRDSEIWS	0.209 ± 0.53
TCRPFIT	inactive
